Where a chain is given by its changes, count along the chain named.
Target: IGFBP3 (insulin-like growth factor-binding protein 3) (UniProt P17936 28-291)
Experiment: SPR

Chain of IGFBP3 (insulin-like growth factor-binding protein 3) (P17936 28-291): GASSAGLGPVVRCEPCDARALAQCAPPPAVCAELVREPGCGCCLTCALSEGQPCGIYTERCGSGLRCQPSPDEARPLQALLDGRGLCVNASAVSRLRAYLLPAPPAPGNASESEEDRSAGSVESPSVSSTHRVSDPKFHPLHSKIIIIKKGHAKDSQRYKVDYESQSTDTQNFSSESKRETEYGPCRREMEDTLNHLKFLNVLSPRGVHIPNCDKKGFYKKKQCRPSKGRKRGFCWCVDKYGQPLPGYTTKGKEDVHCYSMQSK

B1: RGen-aptamer-9 (structured_RNA)
RNA: UCCAGCACUCCACGCAUAACGAAGGGGGUUUGUUUGUUGGGGGGGGGGGAGGGGGAGUUAUGCGUGCUACCGUGAA
**Q.** Which Kd does the source give for B1 here?
**A.** The Kd was 6.06 nM.

B2: SELEX-derived wild-type aptamer (structured_RNA)
RNA: B1 RNA with A22G, A23C, G26U, U29G, U31G, U33G, G40U, G44A
**Q.** With B2 as the binder, how does the Kd read?
**A.** The Kd was 11.6 nM.

From paper doi:10.1101/2024.12.30.630826
